The values that follow come from US20200299400A1 (published 2020).

For assay [1], the target named is T1, human CD73 on human cell lines (human, UniProt P21589 27-549).
T1 sequence (looked up): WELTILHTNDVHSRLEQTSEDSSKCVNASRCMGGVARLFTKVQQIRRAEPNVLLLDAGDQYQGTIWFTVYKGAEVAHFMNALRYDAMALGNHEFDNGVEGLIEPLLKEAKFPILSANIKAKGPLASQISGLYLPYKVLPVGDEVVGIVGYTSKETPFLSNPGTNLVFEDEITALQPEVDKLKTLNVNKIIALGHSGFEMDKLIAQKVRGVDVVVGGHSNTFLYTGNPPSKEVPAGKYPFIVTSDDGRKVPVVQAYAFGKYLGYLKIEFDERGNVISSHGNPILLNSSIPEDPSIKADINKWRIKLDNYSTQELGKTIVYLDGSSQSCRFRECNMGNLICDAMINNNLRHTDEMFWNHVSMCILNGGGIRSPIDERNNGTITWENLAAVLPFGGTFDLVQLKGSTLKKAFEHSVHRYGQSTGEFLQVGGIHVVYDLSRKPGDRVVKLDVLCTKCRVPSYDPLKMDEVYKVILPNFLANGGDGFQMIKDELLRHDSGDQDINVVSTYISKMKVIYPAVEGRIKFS
Description: cell-based or functional assay.

For another assay, the target named is T2, hCD40-Fc (human, UniProt P25942 21-193).
T2 construct: Immobilized on the sensor chip; construct not described; not shown: Fc part of hCD40-Fc not described
T2 sequence (P25942 21-193): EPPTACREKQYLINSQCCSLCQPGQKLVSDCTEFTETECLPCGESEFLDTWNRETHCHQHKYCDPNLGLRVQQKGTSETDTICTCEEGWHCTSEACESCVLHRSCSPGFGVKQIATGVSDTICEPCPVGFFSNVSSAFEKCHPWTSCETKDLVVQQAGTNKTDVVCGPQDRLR
The assay is described as follows: SPR; dAb-Fc analyte on immobilized hCD40-Fc; avidity-influenced KDapparent. In general terms: In SPR one partner is held on a chip, and binding of the other changes the refractive index at the surface.

B1: CD73.3-IgG1.1 (antibody, V domains shown)
VH: EVQLVESGGGLVQPGRSLRLSCAASGFTFDDYAMHWVRQAPGKGLEWVSGISWKSGSIGYADSVKGRFTISRDNAKNSLYLQMNSLRAEDTVLYYCVKGYYVILTGLDYWGQGTLVTVSS
VL: not shown
On to B1, for which the “% internalization, H2228” value in assay [1] turned out to be 47%.

B2: 3h56-269-IgG1.3f (Fc fusion)
chain: EVQLLESGGGLVQPGGSLRLSCAASGFTFRDYEMWWVRQAPGKGLERVSAINPQGTRTYYADSVKGRFTISRDNSKNTLYLQMNSLRAEDTAVYYCAKLPFRFSDRGQGTLVTVSSASTEPKSCDKTHTCPPCPAPEAEGAPSVFLFPPKPKDTLMISRTPEVTCVVVDVSHEDPEVKFNWYVDGVEVHNAKTKPREEQYNSTYRVVSVLTVLHQDWLNGKEYKCKVSNKALPAPIEKTISKAKGQPREPQVYTLPPSREEMTKNQVSLTCLVKGFYPSDIAVEWESNGQPENNYKTTPPVLDSDGSFFLYSKLTVDKSRWQQGNVFSCSVMHEALHNHYTQKSLSLSPGK
With B2, the Kd in the assay with hCD40-Fc is below 1 nM.

B3: 3h56-269-IgG1.1f (Fc fusion)
chain: EVQLLESGGGLVQPGGSLRLSCAASGFTFRDYEMWWVRQAPGKGLERVSAINPQGTRTYYADSVKGRFTISRDNSKNTLYLQMNSLRAEDTAVYYCAKLPFRFSDRGQGTLVTVSSASTEPKSCDKTHTCPPCPAPEAEGAPSVFLFPPKPKDTLMISRTPEVTCVVVDVSHEDPEVKFNWYVDGVEVHNAKTKPREEQYNSTYRVVSVLTVLHQDWLNGKEYKCKVSNKALPSSIEKTISKAKGQPREPQVYTLPPSREEMTKNQVSLTCLVKGFYPSDIAVEWESNGQPENNYKTTPPVLDSDGSFFLYSKLTVDKSRWQQGNVFSCSVMHEALHNHYTQKSLSLSPGK
B3: in the assay with hCD40-Fc, the Kd was below 1 nM.
